Data on one molecule can be found in PMC9891525 (2023).

In this experiment the target is biotinylated recombinant SARS-CoV-2 wild type spike RBD (SARS-CoV-2, UniProt P0DTC2 319-541). Kind of experiment: FACS.

B1: REGN10987 scFv displayed on the surface of HEK 293T cells (scFv, V domains shown)
VH: QVQLVESGGGVVQPGRSLRLSCAASGFTFSNYAMYWVRQAPGKGLEWVAVISYDGSNKYYADSVKGRFTISRDNSKNTLYLQMNSLRTEDTAVYYCASGSDYGDYLLVYWGQGTLVTVSS
VL: QSALTQPASVSGSPGQSITISCTGTSSDVGGYNYVSWYQQHPGKAPKLMIYDVSKRPSGVSNRFSGSKSGNTASLTISGLQSEDEADYYCNSLTSISTWVFGGGTKLTVL
On to B1, for which the Kd was found to be 8.33 nM.
